Test results from patent US9428586B2, “Heparanase splice variant” (COMPUGEN LTD, priority 2010, dated 2016).

Experiments:
CAG myeloma cells = experiment: Cell proliferation by BrdU incorporation, CAG myeloma cells; format: cell-based, human; conditions: infected CAG cells, serum-free 20 h, BrdU 2 h; control Vo 24±3%
Procedure: (§1) FIG. 4. T5 augments cell proliferation. A. BrdU incorporation. Morphology of control (Con), heparanase (Hepa)- and T5-infected CAG myeloma cell cultures is shown in the upper panels. […] Sub-confluent cultures of control (Vo), heparanase (Hepa)- and T5-infected CAG cells were grown in serum-free medium for 20 h followed by incubation with BrdU (1:1000) for 2 h. Cells were then fixed and immunostained with anti BrdU monoclonal antibody. Positively stained, red-brown nuclei were counted vs. blue, hematoxilin counter-stained nuclei. At least 1000 cells were counted for each cell type and the percentage of positively stained cells is noted in each panel. Fold increase in BrdU incorporation is shown graphically on the right panel. Gene silencing. 293 cells were transfected with anti-GFP (si-GFP), anti-heparanase (si-Hepa) or anti-T5 siRNA oligonucleotides and BrdU incorporation was evaluated as above except that cells were kept in serum-containing medium (lower panels). Note 2-fold decrease in BrdU incorporation following heparanase or T5 gene silencing (lower right panel). B. Colony formation in soft agar. […]
Cell proliferation was analyzed by BrdU incorporation using cell proliferation labeling reagent (1:1000, GE Healthcare), as described in Zetser, A., et al (2003 Cancer Res 63, 7733-7741). At least 1000 cells were counted for each cell type.

[1] = Heparanase activity assay of transfected 293 cell lysates on 35S-labelled ECM; format: biochemical, human
Description: FIG. 2. Cloning and expression of T5. A. RT-PCR analysis. Total RNA was extracted from the indicated cell line and subjected to RT-PCR analysis applying T5 (upper panel), heparanase (second panel) and GAPDH (third panel) specific primers, specified in the ‘Materials and Methods’ section. B. T5 transfection. […] Control cells were transfected with an empty vector (Vo). Cell lysates (left) and cell conditioned medium (right) were blotted with anti-heparanase 1453 antibody. C. Cellular localization. Stably transfected 293 cells were triple stained for Myc-tag (T5; middle, red), the ER marker calnexin (ER, left, green), and merged with cell nuclei labeled with TO-PRO (right, blue). Cells were similarly stained with anti-Myc-tag (T5; middle, red), the Golgi marker wheat germ agglutinin-FITC (Golgi, left, green) and merged with cell nuclei labeled with TO-PRO (right, blue). […] D. Enzymatic activity. 293 cells transfected with heparanase (Hepa), T5 or control empty vector (Vo) were subjected to three freeze-thaw cycles and applied onto culture dishes coated with ^35S-labelled ECM. Release of sulfate-labeled material eluted in fractions 15-30 was evaluated as measure of heparanase activity, as described in ‘Materials and Methods’. […]

HUVEC = experiment: Tube-like structure formation on Matrigel; format: cell-based, human; conditions: T5 lenti virus infected HUVEC vs Vo, 24 h and 48 h
Procedure: FIG. 9. A. Tube-like structure formation. Human umbilical vein endothelial cells (HUVEC) were infected with control (Vo) or T5 lenti virus constructs and plated on reconstituted basement membrane (Matrigel). Spontaneous organization into tube-like structures was examined after 24 h (upper panels) and 48 h (lower panels). Note network stabilization upon T5 over expression at 48 h. B Immunofluorescent staining of control (Vo), heparanase-, and T5-infected HUVEC cells applying anti-heparanase 733 antibody (green, left panels). Merged images with nuclear staining (Topro, red) are shown in the right panels. Note T5 localization to endocytic vesicles.

[2] = system: CAG myeloma, FaDu pharynx carcinoma and 293 cells; experiment: Colony formation in soft agar; format: cell-based, human; conditions: over expression in CAG myeloma, FaDu and 293 cells
Procedure: as §1
Three ml of DMEM containing 0.5% low melt agarose (Bio-Rad, Hercules, Calif.) and 10% fetal calf serum was poured into 60 mm petri dishes. […] Colonies were visualized and counted under a microscope after 2-5 weeks, as described.

Src = Src phosphorylation (immunoblot, densitometry) in CAG myeloma cells; format: cell-based, human; conditions: infected CAG myeloma cells, serum-free
Procedure: FIG. 3. T5 augments Src phosphorylation. A. Over expression. CAG myeloma (left) and 293 (right) cells infected with heparanase (Hepa), T5, or control empty vector (Vo) were grown in the absence (−) or presence (+) of heparin (50 μg/ml) under serum-free conditions. Total cell lysates were subjected to immunoblotting applying anti-heparanase 1453 (upper and second panels), anti-phospho-Src (p-Src, third panels), anti-Src (fourth panels) anti-phospho-Erk (p-Erk, fifth panels), and anti-Erk2 (sixth panels) antibodies. Src phosphorylation index was calculated by densitometry analysis of phosphorylated Src levels divided by the total Src values. Data is presented as average fold increase ±SE of Src phosphorylation compared with control, Vo cells, set arbitrary to a value of 1 (lower panels) of five independent experiments. B. Gene silencing. Parental 293 cells were transfected with anti-heparanase, anti-T5, or control siRNAs. Total RNA was extracted and RT-PCR analysis was performed applying T5 (upper panel), heparanase (Hepa, second panel) and GAPDH (third panel) specific primers. Corresponding cell lysates were subjected to immunoblotting applying phospho-Src (p-Src, fourth panel), Src (fifth panel), phospho-Erk (p-Erk, sixth panel) and Erk2 (seventh panel) antibodies. Src phosphorylation index was calculated as above and is shown graphically in the lower panel. Note decreased Src phosphorylation levels upon T5 down regulation.
Preparation of cell lysates, protein blotting, and measurement of heparanase enzymatic activity were carried out as described previously (Zetser, A., et al., 2006, Cancer Res 66, 1455-1463; Fux, L., et al., 2009, Cancer Res 69, 1758-1767).

B1: T5: novel splice variant of heparanase; truncated, enzymatically inactive 169 amino acid protein (protein, listed as Homo sapiens)
chain: MLLRSKPALPPPLMLLLLGPLGPLSPGALPRPAQAQDVVDLDFFTQEPLHLVSPSFLSVTIDANLATDPRFLILLGSPKLRTLARGLSPAYLRFGGTKTDFLIFDPKKESTFEERSYWQSQVNQDICKYGSIPPDVEEKLRLEWPYQEQLLLREHYQKKFKNSTYSSKK
BrdU incorporation (positively stained cells) (CAG myeloma cells): 52±5%
effect on the activity of endogenous heparanase ([1]; T5 vs. Vo transfected 293 cells): did not seem to significantly impinge on the activity of endogenous heparanase
heparanase enzymatic activity ([1]; lysates of stably transfected 293 cells, T5 vs. Hepa): lacks heparanase enzymatic activity
endothelial cell organization (tube formation) on Matrigel (HUVEC): maintained for a relatively long period of time
colony number, size and cell density in soft agar [2]: markedly increased
Src phosphorylation increase vs control Vo cells (Src): comparable induction of Src phosphorylation
